The values that follow come from the Human Domainome abundance scans (Beltran et al. 2025).

± gives the uncertainty stated by the source.

To fix the notation:
B1: POU domain, class 6, transcription factor 2, residues 609 to 663; numbered along this chain, P78424 (parent)
chain: KRRTSFTPQALEILNAHFEKNTHPSGQEMTEIAEKLNYDREVVRVWFCNKRQALK

The variants in the series derive from B1. Briefly: abundance fitness (aPCA) (normalised: wild type 0, dead -1); higher = more abundant; growth selection in yeast, the domain comes from the species named. The following applies: Homo sapiens.
For the variant KRRTSFTPQALEILNAHFEKNLHPSGQEMTEIAEKLNYDREVVRVWFCNKRQALK, the abundance fitness is -0.017 ± 0.077.
Regarding KRRTSFTPQALEILNAHFEKNFHPSGQEMTEIAEKLNYDREVVRVWFCNKRQALK, the abundance fitness was -0.198 ± 0.13.
Then KRRTSFTPQALEILNAHFEKNVHPSGQEMTEIAEKLNYDREVVRVWFCNKRQALK, with 0.105 ± 0.11.
With KRRTSFTPQALEILNAHFEKNKHPSGQEMTEIAEKLNYDREVVRVWFCNKRQALK, the abundance fitness was -0.089 ± 0.11.
As to KRRTSFTPQALEILNAHFEKNEHPSGQEMTEIAEKLNYDREVVRVWFCNKRQALK, the abundance fitness is -0.098 ± 0.19.
For KRRTSFTPQALEILNAHFEKNNHPSGQEMTEIAEKLNYDREVVRVWFCNKRQALK, the abundance fitness turned out to be 0.049 ± 0.12.
Turning to KRRTSFTPQALEILNAHFEKNMHPSGQEMTEIAEKLNYDREVVRVWFCNKRQALK, the abundance fitness is -0.022 ± 0.13.
On to KRRTSFTPQALEILNAHFEKNDHPSGQEMTEIAEKLNYDREVVRVWFCNKRQALK, for which the abundance fitness was -0.037 ± 0.12.
Regarding KRRTSFTPQALEILNAHFEKNQHPSGQEMTEIAEKLNYDREVVRVWFCNKRQALK, the abundance fitness is 0.084 ± 0.14.
Then KRRTSFTPQALEILNAHFEKNAHPSGQEMTEIAEKLNYDREVVRVWFCNKRQALK, with 0.006 ± 0.092.
Then KRRTSFTPQALEILNAHFEKNRHPSGQEMTEIAEKLNYDREVVRVWFCNKRQALK, with 0.005 ± 0.065; and KRRTSFTPQALEILNAHFEKNWHPSGQEMTEIAEKLNYDREVVRVWFCNKRQALK, with -0.176 ± 0.073; and KRRTSFTPQALEILNAHFEKNGHPSGQEMTEIAEKLNYDREVVRVWFCNKRQALK, with 0.002 ± 0.067.
As to KRRTSFTPQALEILNAHFEKNIHPSGQEMTEIAEKLNYDREVVRVWFCNKRQALK, the abundance fitness is -0.103 ± 0.11.
Regarding KRRTSFTPQALEILNAHFEKNHHPSGQEMTEIAEKLNYDREVVRVWFCNKRQALK, the abundance fitness turned out to be 0.134 ± 0.14.
Consider KRRTSFTPQALEILNAHFEKNSHPSGQEMTEIAEKLNYDREVVRVWFCNKRQALK, for which the abundance fitness turned out to be 0.003 ± 0.073.
As for KRRTSFTPQALEILNAHFEKNPHPSGQEMTEIAEKLNYDREVVRVWFCNKRQALK, the abundance fitness turned out to be 0.016 ± 0.1.
KRRTSFTPQALEILNAHFEKNYHPSGQEMTEIAEKLNYDREVVRVWFCNKRQALK: the abundance fitness is -0.201 ± 0.13.
For KRRTSFTPQALEILNAHFEKNTHESGQEMTEIAEKLNYDREVVRVWFCNKRQALK, the abundance fitness was -0.978 ± 0.11.
As for KRRTSFTPQALEILNAHFEKNTHCSGQEMTEIAEKLNYDREVVRVWFCNKRQALK, the abundance fitness was -0.462 ± 0.1.
Take KRRTSFTPQALEILNAHFEKNTHFSGQEMTEIAEKLNYDREVVRVWFCNKRQALK: the abundance fitness is -0.916 ± 0.14.
Turning to KRRTSFTPQALEILNAHFEKNTHNSGQEMTEIAEKLNYDREVVRVWFCNKRQALK, the abundance fitness is -0.96 ± 0.24.
As to KRRTSFTPQALEILNAHFEKNTHDSGQEMTEIAEKLNYDREVVRVWFCNKRQALK, the abundance fitness is -0.792 ± 0.12.
For KRRTSFTPQALEILNAHFEKNTHISGQEMTEIAEKLNYDREVVRVWFCNKRQALK, the abundance fitness is -0.21 ± 0.1.
With KRRTSFTPQALEILNAHFEKNTHWSGQEMTEIAEKLNYDREVVRVWFCNKRQALK, the abundance fitness is -0.317 ± 0.067.
As to KRRTSFTPQALEILNAHFEKNTHKSGQEMTEIAEKLNYDREVVRVWFCNKRQALK, the abundance fitness was -1.1 ± 0.15.
Consider KRRTSFTPQALEILNAHFEKNTHLSGQEMTEIAEKLNYDREVVRVWFCNKRQALK, for which the abundance fitness is -0.394 ± 0.064.
Then KRRTSFTPQALEILNAHFEKNTHVSGQEMTEIAEKLNYDREVVRVWFCNKRQALK, with -0.386 ± 0.058; and KRRTSFTPQALEILNAHFEKNTHRSGQEMTEIAEKLNYDREVVRVWFCNKRQALK, with -0.909 ± 0.068.
For the variant KRRTSFTPQALEILNAHFEKNTHHSGQEMTEIAEKLNYDREVVRVWFCNKRQALK, the abundance fitness is -0.905 ± 0.17.
Regarding KRRTSFTPQALEILNAHFEKNTHQSGQEMTEIAEKLNYDREVVRVWFCNKRQALK, the abundance fitness is -0.741 ± 0.14.
The same measure for KRRTSFTPQALEILNAHFEKNTHTSGQEMTEIAEKLNYDREVVRVWFCNKRQALK: -0.641 ± 0.11; for KRRTSFTPQALEILNAHFEKNTHYSGQEMTEIAEKLNYDREVVRVWFCNKRQALK: -0.805 ± 0.15.
The same measure for KRRTSFTPQALEILNAHFEKNTHMSGQEMTEIAEKLNYDREVVRVWFCNKRQALK: -0.327 ± 0.074; for KRRTSFTPQALEILNAHFEKNTHASGQEMTEIAEKLNYDREVVRVWFCNKRQALK: -0.497 ± 0.068; for KRRTSFTPQALEILNAHFEKNTHPAGQEMTEIAEKLNYDREVVRVWFCNKRQALK: -0.185 ± 0.12.
KRRTSFTPQALEILNAHFEKNTHPFGQEMTEIAEKLNYDREVVRVWFCNKRQALK: the abundance fitness is -0.515 ± 0.18.
Regarding KRRTSFTPQALEILNAHFEKNTHPNGQEMTEIAEKLNYDREVVRVWFCNKRQALK, the abundance fitness was -0.073 ± 0.19.
Then KRRTSFTPQALEILNAHFEKNTHPQGQEMTEIAEKLNYDREVVRVWFCNKRQALK, with -0.313 ± 0.25; and KRRTSFTPQALEILNAHFEKNTHPHGQEMTEIAEKLNYDREVVRVWFCNKRQALK, with 0.073 ± 0.26; and KRRTSFTPQALEILNAHFEKNTHPLGQEMTEIAEKLNYDREVVRVWFCNKRQALK, with -0.213 ± 0.098.
Regarding KRRTSFTPQALEILNAHFEKNTHPIGQEMTEIAEKLNYDREVVRVWFCNKRQALK, the abundance fitness was -0.355 ± 0.17.
As to KRRTSFTPQALEILNAHFEKNTHPGGQEMTEIAEKLNYDREVVRVWFCNKRQALK, the abundance fitness is -0.051 ± 0.098.
As for KRRTSFTPQALEILNAHFEKNTHPEGQEMTEIAEKLNYDREVVRVWFCNKRQALK, the abundance fitness was -0.383 ± 0.2.
With KRRTSFTPQALEILNAHFEKNTHPDGQEMTEIAEKLNYDREVVRVWFCNKRQALK, the abundance fitness was -0.17 ± 0.18.
Then KRRTSFTPQALEILNAHFEKNTHPMGQEMTEIAEKLNYDREVVRVWFCNKRQALK, with -0.313 ± 0.27; and KRRTSFTPQALEILNAHFEKNTHPCGQEMTEIAEKLNYDREVVRVWFCNKRQALK, with -0.232 ± 0.16.
In the case of KRRTSFTPQALEILNAHFEKNTVPSGQEMTEIAEKLNYDREVVRVWFCNKRQALK, the abundance fitness was -0.086 ± 0.074.
